Percent of the total binding (of GalNAc-T2 to GalNAc-MUC2, with Mn2+ and UDP) data for one substance are collected here from article PMC3173194.

The target in this test is GalNAc-glycosylated recombinant MUC2 fragment (UniProt Q02817). Nature of the test: peptide or protein array.

Take “GalNAc-T2 with a mutation in the α-lectin subdomain (GalNAc-T2^458H) (from UniProt Q10471 52-571) (enzyme)”: the percent of the total binding (of GalNAc-T2 to GalNAc-MUC2, with Mn2+ and UDP) amounted to 20%.
